Results published in paper PMC12375107 (Cell Death & Disease, 2025).

Molecular target: T1, STING protein (SPR) (human, UniProt Q86WV6 1-379)
T1 construct: STING, protein injected as analyte; Probably the recombinant protein from E. coli of the GST pull-down
Assay: SPR; Biacore 8K; CAD captured on sensor chip CM5; STING injected at increasing concentrations for 2 min, dissociation 2 min in running buffer; equilibrium constants by the evaluation software
Details: both partners purified

T1 sequence (Q86WV6 whole entry): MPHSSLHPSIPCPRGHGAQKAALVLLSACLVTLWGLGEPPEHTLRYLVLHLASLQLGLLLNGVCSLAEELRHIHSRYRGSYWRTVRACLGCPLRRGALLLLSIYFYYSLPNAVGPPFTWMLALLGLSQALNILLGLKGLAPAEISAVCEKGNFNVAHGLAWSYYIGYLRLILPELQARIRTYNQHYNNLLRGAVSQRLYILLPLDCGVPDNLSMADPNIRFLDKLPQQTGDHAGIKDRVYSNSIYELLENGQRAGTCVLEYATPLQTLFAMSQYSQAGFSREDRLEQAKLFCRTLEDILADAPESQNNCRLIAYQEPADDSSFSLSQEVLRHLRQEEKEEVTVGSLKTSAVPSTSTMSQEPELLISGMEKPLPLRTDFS

B1: CAD protein (SPR) (enzyme, human, UniProt O76075 1-338, looked up)
chain: MLQKPKSVKLRALRSPRKFGVAGRSCQEVLRKGCLRFQLPERGSRLCLYEDGTELTEDYFPSVPDNAELVLLTLGQAWQGYVSDIRRFLSAFHEPQVGLIQAAQQLLCDEQAPQRQRLLADLLHNVSQNIAAETRAEDPPWFEGLESRFQSKSGYLRYSCESRIRSYLREVSSYPSTVGAEAQEEFLRVLGSMCQRLRSMQYNGSYFDRGAKGGSRLCTPEGWFSCQGPFDMDSCLSRHSINPYSNRESRILFSTWNLDHIIEKKRTIIPTLVEAIKEQDGREVDWEYFYGLLFTSENLKLVHIVCHKKTTHKLNCDPSRIYKPQTRLKRKQPVRKRQ
notes: Probably the recombinant protein from E. coli of the GST pull-down
  Kd: 993 nM
